From patent publication US20120237528A1 (Janssen / Centocor, published 2012)
Read-outs that look alike come from different tables or passages of the source.

T1: Cynomolgous monkey (cyno) TF-ECD with His Tag (cynomolgus monkey, UniProt P13726 33-251 (human entry))
T1 construct: also called cyno antigen
T1 chain: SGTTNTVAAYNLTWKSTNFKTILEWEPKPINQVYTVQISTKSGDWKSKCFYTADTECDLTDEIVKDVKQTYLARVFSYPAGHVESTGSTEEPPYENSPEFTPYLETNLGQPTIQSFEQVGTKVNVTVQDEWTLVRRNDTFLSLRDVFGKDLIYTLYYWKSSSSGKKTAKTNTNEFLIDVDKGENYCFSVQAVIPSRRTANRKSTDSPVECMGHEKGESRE


Experiments:
[1] = target: T2, recombinant extracellular domain (ECD) of human TF, amino acid 1-219 of the mature chain, C-terminal His6-tag (human, UniProt P13726 33-251); test: Biacore
T2 construct: expressed in a mammalian system; used for ELISA and Biacore; biotinylated by NHS-ester for the Fab ELISA; also called His6-TF-ECD1-219; HumanTF1-219

[2] = target: T1, Cynomolgous monkey (cyno) TF-ECD with …; test: Biacore
[3] = target: T3, endogenous human tissue factor on MDA-MB-231 breast cancer cells (human, UniProt P13726 33-295); test: FACS on MDA-MB-231 cells
T3 construct: also called native TF; TF
Protocol: This assay is used to detect the direct binding of antibody to endogenouse human TF expressed in breast cancer cells. Prepare four point titrations of the test mAbs in FACS buffer (1% FBS in PBS) in duplicate. Start a titration at 1,000 ng/ml with 1:4 dilutions. […] Unstained cells and secondary antibody, Cy-5 conjugated Goat anti-Human IgG Fc antibody in FACS buffer 1:200, is used as controls and prepared immediately before use.
Using standard tissue culture technique, rinse adherent MDA-MB-231 cells in culture flask with once with PBS (w/o Ca+2/Mg+2). Lift cells with Versene and count the cells and seed 200,000 cells per well in a polystyrene V-bottom plate. FACS Analysis Protocol: Tissue Factor Binding. Pellet the cells in a Allegra X-15R centrifuge at 450×g for 3 minutes at 4° C., resuspend in FACS Buffer (2% FBS in PBS) and plate 200,000 cells per well in 200 uL. Pellet cells at 450×g for 3 minutes at 4° C. Discard supernatants and add 100 uL/well test or control mAbs to designated wells and incubate on ice or at 4° C. for 1 hour (+/−10 minutes). Pellet cells at 450×g for 3 minutes at 4° C. Discard supernatants and wash cells once in FACS buffer. Resuspend cells in 200 uL/well FACS buffer and pellet cells at 450×g for 3 minutes at 4° C. Discard supernatants and add 100 uL/well secondary antibody to designated wells (triterate), and incubate on ice for 1 hour (+/−10 minutes). Pellet cells at 450×g for 3 minutes at 4° C. Discard supernatants and wash cells 2 times in FACS buffer before resuspending the cells in 200 uL/well FACS Buffer (triterate). Pellet cells at 450×g for 3 minutes at 4° C. Discard supernatant and resuspend cells in 100 uL/well CytoFix Buffer. Analyze reactions by flow cytometry (BD FACSArray). The FlowJo Software is used for FACS data analysis by gating the main population of cells in the unstained control well and applying the gate to the whole data set. The data is exported as a table of the geometric mean fluorescence intensity (MFI) in the red channel for the applied gate.

[4] = target: T2, recombinant extracellular domain (ECD) …; test: Biacore; remark: listed apart in the source
[5] = target: T3, endogenous human tissue factor on …; test: cell-based or functional assay
[6] = target: T2, recombinant extracellular domain (ECD) …; test: TF-ECD binding ELISA, chemiluminescent
[7] = target: T1, Cynomolgous monkey (cyno) TF-ECD with …; test: TF-ECD binding ELISA, chemiluminescent
[8] = target: Innovin, lyophilized recombinant human tissue factor combined with phospholipids (human, UniProt P13726 33-295, limits assumed); test: cell-based or functional assay
[9] = target: T3, endogenous human tissue factor on …; test: cell-based or functional assay; remark: listed apart in the source
[10] = target: T3, endogenous human tissue factor on …; test: cell-based or functional assay; remark: listed apart in the source

Binder | Kd [1] [nM] | Kd [2] [nM] | Whole Cell Binding, Ave % [3] [%] | Kd [4] [nM] | koff [4] [s⁻¹] | kon [4] [M⁻¹ s⁻¹] | % IL-8 Inhibition [5] [%] | EC50 [6] [mg/L] | EC50 [7] [mg/L] | T½ Max (seconds), coagulation of human plasma [8] [s] | IL-8 Induction, Ave % inhibition [9] [%] | IC50 (ug/ml), IL-8 induction assay [10] [µg/mL]
M9 (antibody, V domains shown, complete MAb; FR4 is its own entry; also called H15/L2) VH: EVQLVQSGAEVKKPGESLRISCKGSGYTFITYWIEWVRQMPGKGLEWMGDILPGSGSTNYNENFKGHVTISADKSISTAYLQWSSLKASDTAMYYCARSGYYGNSGFAYWGQGTLVTVSS VL: DIVMTQSPDSLAVSLGERATINCKSSQSLLSSGNQKNYLTWYQQKPGQPPKLLIYWASTRESGVPDRFSGSGSGTDFTLTISSLQAEDVAVYYCQNDYTYPLTFGQGTKLEIK | 0.61 | 1.55 | 107 | 0.61 | 5.9e-05 | 97300 | 103 | 0.0098 | 0.0199 | 198 | 106 | 
M58 (antibody, V domains shown, complete MAb; FR4 is its own entry; also called H22/L2) VH: EVQLVQSGAEVKKPGESLRISCKGSGYTFITYWIEWVRQMPGKGLEWMGDILPGSGSTNYSPSFQGHVTISADKSISTAYLQWSSLKASDTAMYYCARSGYYGNSGFAYWGQGTLVTVSS VL: DIVMTQSPDSLAVSLGERATINCKSSQSLLSSGNQKNYLTWYQQKPGQPPKLLIYWASTRESGVPDRFSGSGSGTDFTLTISSLQAEDVAVYYCQNDYTYPLTFGQGTKLEIK | 0.2 | 1.18 | 94 | 0.19 | 1.8e-05 | 94800 | 88.5 | 0.00903 | 0.0198 | 192 | 106 | 
M1584 (antibody, V domains shown, complete MAb; FR4 is its own entry; also called H173/L3) VH: EVQLVQSGAEVKKPGESLRISCKGSGYTFVTYWIEWVRQMPGKGLEWMGDILPGTGYTVYSPSFQGHVTISADKSISTAYLQWSSLKASDTAMYYCARSGYYGNSGFAYWGQGTLVTVSS VL: DIVMTQTPLSLPVTPGEPASISCKSSQSLLSSGNQKNYLTWYLQKPGQSPQLLIYWASTRESGVPDRFSGSGSGTDFTLKISRVEAEDVGVYYCQNDYTYPLTFGQGTKLEIK |  |  |  | 0.3 | 5.6e-05 | 184000 |  |  |  | 199 |  | 0.332
M1607 (antibody, V domains shown, complete MAb; FR4 is its own entry; also called H189/L3; TF7M1607) VH: EVQLVQSGAEVKKPGESLRISCKGSGFTFITYWIAWVRQMPGKGLEWMGDILPASSSTNYSPSFQGHVTISADKSISTAYLQWSSLKASDTAMYYCARSGYYGNSGFAYWGQGTLVTVSS VL: DIVMTQTPLSLPVTPGEPASISCKSSQSLLSSGNQKNYLTWYLQKPGQSPQLLIYWASTRESGVPDRFSGSGSGTDFTLKISRVEAEDVGVYYCQNDYTYPLTFGQGTKLEIK |  |  |  | 0.35 | 6e-05 | 170000 |  |  |  | 152 |  | 0.395
M12 (antibody, V domains shown, complete MAb; FR4 is its own entry; also called H15/L5) VH: EVQLVQSGAEVKKPGESLRISCKGSGYTFITYWIEWVRQMPGKGLEWMGDILPGSGSTNYNENFKGHVTISADKSISTAYLQWSSLKASDTAMYYCARSGYYGNSGFAYWGQGTLVTVSS VL: DIVMTQTPLSLSVTPGQPASISCKSSQSLLSSGNQKNYLTWYLQKPGQPPQLLIYWASTRESGVPDRFSGSGSGTDFTLKISRVEAEDVGVYYCQNDYTYPLTFGQGTKLEIK | 0.55 | 2.24 | 124 | 0.55 | 5.1e-05 | 92200 | 98.6 | 0.01 | 0.0228 | 197 | 102 | 

Now from value to binder:

Kd [1] [nM] | Kd [2] [nM] | Whole Cell Binding, Ave % [3] [%] | Kd [4] [nM] | koff [4] [s⁻¹] | kon [4] [M⁻¹ s⁻¹] | % IL-8 Inhibition [5] [%] | EC50 [6] [mg/L] | EC50 [7] [mg/L] | T½ Max (seconds), coagulation of human plasma [8] [s] | IL-8 Induction, Ave % inhibition [9] [%] | IC50 (ug/ml), IL-8 induction assay [10] [µg/mL] | Binder
0.66 | 1.96 | 109 | 0.66 | 6.7e-05 | 102000 | 98.3 | 0.00931 | 0.0234 | 198 | 109 |  | M16 (antibody, V domains shown, complete MAb; FR4 is its own entry; also called H16/L2) VH: QVQLVQSGAEVKKPGASVKVSCKASGYTFITYWIEWVRQAPGQGLEWMGDILPGSGSTNYNENFKGRVTMTRDTSTSTVYMELSSLRSEDTAVYYCARSGYYGNSGFAYWGQGTLVTVSS VL: DIVMTQSPDSLAVSLGERATINCKSSQSLLSSGNQKNYLTWYQQKPGQPPKLLIYWASTRESGVPDRFSGSGSGTDFTLTISSLQAEDVAVYYCQNDYTYPLTFGQGTKLEIK
0.37 | 1.52 | 114 | 0.36 |  |  | 87.9 | 0.00994 | 0.0187 | 195 | 93 |  | M11 (antibody, V domains shown, complete MAb; FR4 is its own entry; also called H15/L4) VH: EVQLVQSGAEVKKPGESLRISCKGSGYTFITYWIEWVRQMPGKGLEWMGDILPGSGSTNYNENFKGHVTISADKSISTAYLQWSSLKASDTAMYYCARSGYYGNSGFAYWGQGTLVTVSS VL: DIVMTQSPLSLPVTPGEPASISCKSSQSLLSSGNQKNYLTWYLQKPGQSPQLLIYWASTRESGVPDRFSGSGSGTDFTLKISRVEAEDVGVYYCQNDYTYPLTFGQGTKLEIK
 |  |  | 0.38 | 6.3e-05 | 165000 |  |  |  | 163 |  | 0.413 | M1612 (antibody, V domains shown, complete MAb; FR4 is its own entry; also called H133/L3; TF7M1612) VH: EVQLVQSGAEVKKPGESLRISCKGSGYTFNPYWIEWVRQMPGKGLEWMGDILPGTGYTNYSPSFQGHVTISADKSISTAYLQWSSLKASDTAMYYCARSGYYGNSGFAYWGQGTLVTVSS VL: DIVMTQTPLSLPVTPGEPASISCKSSQSLLSSGNQKNYLTWYLQKPGQSPQLLIYWASTRESGVPDRFSGSGSGTDFTLKISRVEAEDVGVYYCQNDYTYPLTFGQGTKLEIK
0.41 | 2.81 | 111 | 0.41 | 4.1e-05 | 98800 | 87.3 | 0.00922 | 0.0296 | 199 | 106 |  | M19 (antibody, V domains shown, complete MAb; FR4 is its own entry; also called H16/L5) VH: QVQLVQSGAEVKKPGASVKVSCKASGYTFITYWIEWVRQAPGQGLEWMGDILPGSGSTNYNENFKGRVTMTRDTSTSTVYMELSSLRSEDTAVYYCARSGYYGNSGFAYWGQGTLVTVSS VL: DIVMTQTPLSLSVTPGQPASISCKSSQSLLSSGNQKNYLTWYLQKPGQPPQLLIYWASTRESGVPDRFSGSGSGTDFTLKISRVEAEDVGVYYCQNDYTYPLTFGQGTKLEIK
 |  |  | 0.31 | 5.9e-05 | 192000 |  |  |  | 154 |  | 0.398 | M1611 (antibody, V domains shown, complete MAb; FR4 is its own entry; also called H128/L3) VH: EVQLVQSGAEVKKPGESLRISCKGSGYTFGPYWIEWVRQMPGKGLEWMGDILPGSGYTTYSPSFQGHVTISADKSISTAYLQWSSLKASDTAMYYCARSGYYGNSGFAYWGQGTLVTVSS VL: DIVMTQTPLSLPVTPGEPASISCKSSQSLLSSGNQKNYLTWYLQKPGQSPQLLIYWASTRESGVPDRFSGSGSGTDFTLKISRVEAEDVGVYYCQNDYTYPLTFGQGTKLEIK
